In PMC6494836, “Mechanism-based tuning of insect 3,4-dihydroxyphenylacetaldehyde synthase for synthetic bioproduction of benzylisoquinoline alkaloids” (Nature Communications, 2019):

These substances were tested on N[C@@H](Cc1ccc(O)c(O)c1)C(=O)O (assay: fluorometric H2O2 production assay (peroxidase-coupled)). Settings: O2 co-substrate; PBS; PLP cofactor; aldehyde synthase (H2O2-producing) activity; parentheses are 95% confidence interval.
Type: biochemical, Bombyx mori
Source text: fluorometric H2O2 production assay (peroxidase-coupled) on B. mori DHPAAS
B. mori DHPAAS (Bombyx mori) was tested, and the Km was 41.7 (36.6–47.3) µM and the kcat was 6.51 (6.27–6.76) min^−1.
For “B. mori DHPAAS (Bombyx mori; F79Y/N192H/Y80F)”, the Km was 27.6 (17.1–42.8) µM and the kcat was 0.97 (0.87–1.09) min^−1.
In the case of B. mori DHPAAS (Bombyx mori; F79Y/Y80F), the Km was 62.3 (49.5–78.5) µM and the kcat was 4.65 (4.30–5.03) min^−1.
For B. mori DHPAAS (Bombyx mori; N192H), the Km was 36.5 (32.8–40.5) µM and the kcat was 1.40 (1.35–1.44) min^−1.
